The source of these data is PMC6007377.

The data set concerns the target TDG N140A (human, UniProt Q13569 1-410, N140A). Briefly: fluorescence anisotropy. A general note: Fluorescence polarisation rises when a labelled molecule tumbles more slowly, as on binding a larger partner.

Sequence of TDG N140A (Q13569 whole entry N140A): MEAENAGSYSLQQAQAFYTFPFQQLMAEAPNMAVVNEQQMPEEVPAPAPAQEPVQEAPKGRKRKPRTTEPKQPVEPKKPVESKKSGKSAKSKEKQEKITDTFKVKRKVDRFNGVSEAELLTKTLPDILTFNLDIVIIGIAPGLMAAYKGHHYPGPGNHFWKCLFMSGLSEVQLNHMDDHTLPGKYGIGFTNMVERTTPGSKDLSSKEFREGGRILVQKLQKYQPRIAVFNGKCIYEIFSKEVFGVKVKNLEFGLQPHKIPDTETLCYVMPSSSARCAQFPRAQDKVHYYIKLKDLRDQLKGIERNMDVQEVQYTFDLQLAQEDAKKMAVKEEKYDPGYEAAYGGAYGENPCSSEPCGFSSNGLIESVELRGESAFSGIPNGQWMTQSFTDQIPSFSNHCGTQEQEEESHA

B1: G·fC 28mer (TR) (dsDNA)
DNA 1: GTGTCACCACTGCTCACGTACAGAGCTG
DNA 2: CAGCTCTGTACGTGAGCAGTGGTGACAC
modifications: 5-formylcytosine at position 17 of strand 1, paired with G
As for B1, the Kd (as a rule, the equilibrium constant for the complex coming apart) came out at 4 ± 0.8 nM.

B2: G·caC 28mer (TR) (dsDNA)
DNA 1: GTGTCACCACTGCTCACGTACAGAGCTG
DNA 2: CAGCTCTGTACGTGAGCAGTGGTGACAC
modifications: 5-carboxylcytosine at position 17 of strand 1, paired with G
The molecule B2 returned a Kd of 2.3 ± 0.6 nM.
